Results as given in paper PMC8117407 (Science (New York, N.Y.), 2020).

Biological target: the molecule itself
Experiment: dual-colour single-molecule co-tracking

B1: mXFP-EpoR coexpressed with JAK2 V617F-mEGFP (complex)
chain 1: APPPNLPDPKFESKAALLAARGPEELLCFTERLEDLVCFWEEAASAGVGPGNYSFSYQLEDEPWKLCRLHQAPTARGAVRFWCSLPTADTSSFVPLELRVTAASGAPRYHRVIHINEVVLLDAPVGLVARLADESGHVVLRWLPPPETPMTSHIRYEVDVSAGNGAGSVQRVEILEGRTECVLSNLRGRTRYTFAVRARMAEPSFGGFWSAWSEPVSLLTPSDLDPLILTLSLILVVILVLLTVLALLSHRRALKQKIWPGIPSPESEFEGLFTTHKGNFQLWLYQNDGCLWWSPCTPFTEDPPASLEVLSERCWGTMQAVEPGTDDEGPLLEPVGSEHAQDTYLVLDKWLLPRNPPSEDLPGPGGSVDIVAMDEGSEASSCSSALASKPSPEGASAASFEYTILDPSSQLLRPWTLCPELPPTPPHLKYLYLVVSDSGISTDYSSGDSQGAQGGLSDGPYSNPYENSLIPAAEPLPPSYVACS
chain 2: MGMACLTMTEMEGTSTSSIYQNGDISGNANSMKQIDPVLQVYLYHSLGKSEADYLTFPSGEYVAEEICIAASKACGITPVYHNMFALMSETERIWYPPNHVFHIDESTRHNVLYRIRFYFPRWYCSGSNRAYRHGISRGAEAPLLDDFVMSYLFAQWRHDFVHGWIKVPVTHETQEECLGMAVLDMMRIAKENDQTPLAIYNSISYKTFLPKCIRAKIQDYHILTRKRIRYRFRRFIQQFSQCKATARNLKLKYLINLETLQSAFYTEKFEVKEPGSGPSGEEIFATIIITGNGGIQWSRGKHKESETLTEQDLQLYCDFPNIIDVSIKQANQEGSNESRVVTIHKQDGKNLEIELSSLREALSFVSLIDGYYRLTADAHHYLCKEVAPPAVLENIQSNCHGPISMDFAISKLKKAGNQTGLYVLRCSPKDFNKYFLTFAVERENVIEYKHCLITKNENEEYNLSGTKKNFSSLKDLLNCYQMETVRSDNIIFQFTKCCPPKPKDKSNLLVFRTNGVSDVPTSPTLQRPTHMNQMVFHKIRNEDLIFNESLGQGTFTKIFKGVRREVGDYGQLHETEVLLKVLDKAHRNYSESFFEAASMMSKLSHKHLVLNYGVCFCGDENILVQEFVKFGSLDTYLKKNKNCINILWKLEVAKQLAWAMHFLEENTLIHGNVCAKNILLIREEDRKTGNPPFIKLSDPGISITVLPKDILQERIPWVPPECIENPKNLNLATDKWSFGTTLWEICSGGDKPLSALDSQRKLQFYEDRHQLPAPKWAELANLINNCMDYEPDFRPSFRAIIRDLNSLFTPDYELLTENDMLPNMRIGALGFSGAFEDRDPTQFEERHLKFLQQLGKGNFGSVEMCRYDPLQDNTGEVVAVKKLQHSTEEHLRDFEREIEILKSLQHDNIVKYKGVCYSAGRRNLKLIMEYLPYGSLRDYLQKHKERIDHIKLLQYTSQICKGMEYLGTKRYIHRDLATRNILVENENRVKIGDFGLTKVLPQDKEYYKVKEPGESPIFWYAPESLTESKFSVASDVWSFGVVLYELFTYIEKSKSPPAEFMRMIGNDKQGQMIVFHLIELLKNNGRLPRPDGCPDEIYMIMTECWNNNVNQRPSFRDLALRVDQIRDNMAG
  ligand-independent dimerization relative to ligand-induced dimerization: ~25%

B2: mXFP-GHR coexpressed with JAK2 V617F-mEGFP (complex)
chain 1: FSGSEATAAILSRAPWSLQSVNPGLKTNSSKEPKFTKCRSPERETFSCHWTDEVHHGTKNLGPIQLFYTRRNTQEWTQEWKECPDYVSAGENSCYFNSSFTSIWIPYCIKLTSNGGTVDEKCFSVDEIVQPDPPIALNWTLLNVSLTGIHADIQVRWEAPRNADIQKGWMVLEYELQYKEVNETKWKMMDPILTTSVPVYSLKVDKEYEVRVRSKQRNSGNYGEFSEVLYVTLPQMSQFTCEEDFYFPWLLIIIFGIFGLTVMLFVFLFSKQQRIKMLILPPVPVPKIKGIDPDLLKEGKLEEVNTILAIHDSYKPEFHSDDSWVEFIELDIDEPDEKTEESDTDRLLSSDHEKSHSNLGVKDGDSGRTSCCEPDILETDFNANDIHEGTSEVAQPQRLKGEADLLCLDQKNQNNSPYHDACPATQQPSVIQAEKNKPQPLPTEGAESTHQAAHIQLSNPSSLSNIDFYAQVSDITPAGSVVLSPGQKNKAGMSQCDMHPEMVSLCQENFLMDNAYFCEADAKKCIPVAPHIKVESHIQPSLNQEDIYITTESLTTAAGRPGTGEHVPGSEMPVPDYTSIHIVQSPQGLILNATALPLPDKEFLSSCGYVSTDQLNKIMP
chain 2: MGMACLTMTEMEGTSTSSIYQNGDISGNANSMKQIDPVLQVYLYHSLGKSEADYLTFPSGEYVAEEICIAASKACGITPVYHNMFALMSETERIWYPPNHVFHIDESTRHNVLYRIRFYFPRWYCSGSNRAYRHGISRGAEAPLLDDFVMSYLFAQWRHDFVHGWIKVPVTHETQEECLGMAVLDMMRIAKENDQTPLAIYNSISYKTFLPKCIRAKIQDYHILTRKRIRYRFRRFIQQFSQCKATARNLKLKYLINLETLQSAFYTEKFEVKEPGSGPSGEEIFATIIITGNGGIQWSRGKHKESETLTEQDLQLYCDFPNIIDVSIKQANQEGSNESRVVTIHKQDGKNLEIELSSLREALSFVSLIDGYYRLTADAHHYLCKEVAPPAVLENIQSNCHGPISMDFAISKLKKAGNQTGLYVLRCSPKDFNKYFLTFAVERENVIEYKHCLITKNENEEYNLSGTKKNFSSLKDLLNCYQMETVRSDNIIFQFTKCCPPKPKDKSNLLVFRTNGVSDVPTSPTLQRPTHMNQMVFHKIRNEDLIFNESLGQGTFTKIFKGVRREVGDYGQLHETEVLLKVLDKAHRNYSESFFEAASMMSKLSHKHLVLNYGVCFCGDENILVQEFVKFGSLDTYLKKNKNCINILWKLEVAKQLAWAMHFLEENTLIHGNVCAKNILLIREEDRKTGNPPFIKLSDPGISITVLPKDILQERIPWVPPECIENPKNLNLATDKWSFGTTLWEICSGGDKPLSALDSQRKLQFYEDRHQLPAPKWAELANLINNCMDYEPDFRPSFRAIIRDLNSLFTPDYELLTENDMLPNMRIGALGFSGAFEDRDPTQFEERHLKFLQQLGKGNFGSVEMCRYDPLQDNTGEVVAVKKLQHSTEEHLRDFEREIEILKSLQHDNIVKYKGVCYSAGRRNLKLIMEYLPYGSLRDYLQKHKERIDHIKLLQYTSQICKGMEYLGTKRYIHRDLATRNILVENENRVKIGDFGLTKVLPQDKEYYKVKEPGESPIFWYAPESLTESKFSVASDVWSFGVVLYELFTYIEKSKSPPAEFMRMIGNDKQGQMIVFHLIELLKNNGRLPRPDGCPDEIYMIMTECWNNNVNQRPSFRDLALRVDQIRDNMAG
  ligand-independent dimerization relative to ligand-induced dimerization: ~10%
